Measured values: patent US20200101171A1

Target: IGF-1 receptor (UniProt P08069)
Assay: SPA competition by the method of Experimental Example 1; text: relative to human native IGF-1; curve did not reach saturation at the highest concentration

Sequence of UniProt P08069 (P08069 31-1367 limits assumed): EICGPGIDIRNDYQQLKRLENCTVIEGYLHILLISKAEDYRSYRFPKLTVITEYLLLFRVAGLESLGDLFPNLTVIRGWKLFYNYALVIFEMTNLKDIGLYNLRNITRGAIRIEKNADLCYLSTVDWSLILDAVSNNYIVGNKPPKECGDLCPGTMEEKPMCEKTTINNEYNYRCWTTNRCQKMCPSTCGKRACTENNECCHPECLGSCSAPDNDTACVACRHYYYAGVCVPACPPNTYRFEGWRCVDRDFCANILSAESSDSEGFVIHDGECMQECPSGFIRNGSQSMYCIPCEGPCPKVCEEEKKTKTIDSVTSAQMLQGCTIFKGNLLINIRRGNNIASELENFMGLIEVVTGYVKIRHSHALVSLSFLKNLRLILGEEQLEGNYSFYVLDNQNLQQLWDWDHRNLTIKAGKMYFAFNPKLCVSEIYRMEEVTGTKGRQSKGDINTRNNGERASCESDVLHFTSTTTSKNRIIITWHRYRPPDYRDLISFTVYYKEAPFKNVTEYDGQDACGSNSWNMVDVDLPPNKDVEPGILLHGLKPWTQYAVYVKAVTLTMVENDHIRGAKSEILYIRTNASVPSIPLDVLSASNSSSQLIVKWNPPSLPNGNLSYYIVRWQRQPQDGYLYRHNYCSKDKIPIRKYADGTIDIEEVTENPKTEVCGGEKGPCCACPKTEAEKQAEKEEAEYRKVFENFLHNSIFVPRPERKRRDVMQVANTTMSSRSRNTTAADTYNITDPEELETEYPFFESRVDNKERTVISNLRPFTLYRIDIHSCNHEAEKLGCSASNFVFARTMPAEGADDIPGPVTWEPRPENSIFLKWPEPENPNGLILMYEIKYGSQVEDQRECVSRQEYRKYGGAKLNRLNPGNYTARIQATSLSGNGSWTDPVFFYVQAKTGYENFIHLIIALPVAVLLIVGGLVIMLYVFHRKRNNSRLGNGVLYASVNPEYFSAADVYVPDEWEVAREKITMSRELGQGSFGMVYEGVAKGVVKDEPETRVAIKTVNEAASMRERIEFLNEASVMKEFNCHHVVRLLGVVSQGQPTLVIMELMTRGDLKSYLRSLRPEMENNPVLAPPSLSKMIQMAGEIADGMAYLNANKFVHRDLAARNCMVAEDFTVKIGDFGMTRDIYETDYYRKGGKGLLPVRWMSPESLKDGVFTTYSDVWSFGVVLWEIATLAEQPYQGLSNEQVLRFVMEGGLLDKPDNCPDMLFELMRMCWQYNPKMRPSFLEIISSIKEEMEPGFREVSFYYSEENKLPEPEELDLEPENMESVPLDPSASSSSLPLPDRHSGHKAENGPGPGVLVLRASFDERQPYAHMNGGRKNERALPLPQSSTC
Sequence of native insulin-3.4K PEG-immunoglobulin Fc conjugate (chain): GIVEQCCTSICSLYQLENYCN
Sequence of native insulin-3.4K PEG-immunoglobulin Fc conjugate (chain): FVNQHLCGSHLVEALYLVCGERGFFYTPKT

native insulin-3.4K PEG-immunoglobulin Fc conjugate
Receptor binding affinity (%, SPA method), IGF-1R: < 1%
